“Also recorded” adds a separate entry of the source.
How the values were obtained:
Molm 13 cells = assay: Cell surface calreticulin on staurosporine-treated Molm 13 cells, flow cytometry; type: cell-based, human; details: live cells, compared to isotype control
Text: (§1) FIGS. 14A-14B. […] Live cells were stained with anti-calreticulin (CRT) antibody conjugated by a fluorophore. […] Live cells were stained with LRP1 cluster IV-Fc protein followed by a secondary anti-Fc antibody conjugated to a fluorophore.

[1] = target: T1, Calreticulin on the cell surface of Molm 13 cells (Homo sapiens, UniProt P27797); assay: LRP1 cluster IV-Fc binding to staurosporine-treated Molm 13 cells, flow cytometry
T1 construct: endogenous in cells; host or cells: Molm 13 (human AML cell line), treated with staurosporine
T1 sequence (P27797 18-417): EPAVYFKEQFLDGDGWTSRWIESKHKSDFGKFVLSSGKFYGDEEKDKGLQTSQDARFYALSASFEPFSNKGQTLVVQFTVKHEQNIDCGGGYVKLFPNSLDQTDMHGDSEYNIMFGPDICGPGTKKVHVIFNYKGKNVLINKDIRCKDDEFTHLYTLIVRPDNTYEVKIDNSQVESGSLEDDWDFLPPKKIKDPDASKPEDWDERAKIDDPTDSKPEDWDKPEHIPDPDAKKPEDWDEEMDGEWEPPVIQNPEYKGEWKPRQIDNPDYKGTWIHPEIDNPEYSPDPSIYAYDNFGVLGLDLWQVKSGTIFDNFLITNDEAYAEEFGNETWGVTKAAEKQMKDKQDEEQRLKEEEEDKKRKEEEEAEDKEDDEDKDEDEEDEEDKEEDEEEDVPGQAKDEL
Text: as §1

[2] = tested on: primary human cancer cells; assay: In vitro phagocytosis assay, primary human cancer cells with human macrophages; type: cell-based; details: two hours; for phagocytosis of primary human cancer cells, agent alone: compared to IgG1 isotype control
Experimental: (§2) Given the known role of CRT as a pro-phagocytic signal, its correlation with CD47 expression (FIG. 2A), and its ability to be counteracted by CD47 (FIG. 2), we investigated whether the expression of cell surface CRT on cancer but not normal cells could explain the selective targeting of tumor cells by a blocking anti-CD47 antibody. In vitro phagocytosis assays were performed by incubating primary human normal cells or cancer cells with human macrophages in the presence of anti-CD47 antibody. CD47 was expressed on all normal and cancer cells profiled (FIG. 2A and FIG. 7, 9), but expression of calreticulin was primarily restricted to tumor cells (FIG. 1A,B). […] (FIG. 3C).
(§3) Generation of human macrophages and in vitro phagocytosis assays were performed as previously described. Primary human samples or cell lines were incubated with 10 μg/ml IgG1 isotype control (Ebiosciences), 10 μg/ml anti-CD47 antibody (clone B6H12.2, ATCC), 4 μg/ml calreticulin blocking peptide (MBL International Corporation), 10 μg/ml RAP (Fitzgerald Industries International), or 125 μg/ml recombinant CRT human protein (Thermo Scientific). Per MBL, confirmation of blocking activity was performed by Western blot analysis, verified by incubation of an anti-CRT antibody with 5 times higher concentration of the peptide and performing a Western blot analysis to determine if the specific band had been diminished. Cells were then analyzed by fluorescence microscopy to determine the phagocytic index (number of cells ingested per 100 macrophages).

NBM cells = assay: In vitro phagocytosis assay, human NBM cells with human macrophages; type: cell-based; details: vs vehicle or IgG1 isotype control
Text: Next, the relationship between the level of tumor cell surface CRT expression and level of phagocytosis by anti-CD47 antibody was investigated. Cell surface CRT expression on tumor cells positively correlated with the degree of anti-CD47 antibody mediated phagocytosis, regardless of tumor cell type (FIG. 3D). Finally, given that normal cells express minimal levels of cell surface CRT, we investigated whether the addition of CRT to the surface of these cells could enable phagocytosis.
as §3

[3] = tested on: primary human normal cells; assay: In vitro phagocytosis assay, normal human tissue cells with human macrophages; type: cell-based; details: several normal human tissue types, vs IgG1 isotype control
Experimental: as §2
as §3, with “Per MBL, confirmation of blocking activity was performed by Western blot analysis, verified by incubation of an anti-CRT antibody with 5 times higher concentration of the peptide and performing a Western blot analysis to determine if the specific band had been diminished.” left out

CN[C@@H]1C[C@H]2O[C@@](C)([C@@H]1OC)n1c3ccccc3c3c4c(c5c6ccccc6n2c5c31)C(=O)NC4 [staurosporine]
cell surface calreticulin (Molm 13 cells): increase in cell surface calreticulin

LRP1 cluster IV-Fc protein: LRP1 cluster IV fused to Fc, used to stain cell surface calreticulin
binding to staurosporine-treated Molm 13 cells ([1]; live cells, secondary anti-Fc antibody, flow cytometry): increase in the binding

RAP: receptor-associated protein (RAP), an inhibitor of LRP (Fitzgerald Industries International)
anti-CD47 antibody-mediated phagocytosis of cancer cells ([2]; in the presence of anti-CD47 antibody): completely abrogated in most cases; also recorded: completely abrogated anti-CD47 antibody-mediated phagocytosis
phagocytosis of primary human cancer cells, agent alone [2]: did not enable phagocytosis
phagocytosis of primary human cancer cells, agent alone ([2]; listed as LRP): no effect on phagocytosis
blocking of LRP1 cluster IV-Fc protein binding ([1]; staurosporine-treated Molm 13 cells): can be blocked

B1: anti-CD47 antibody: blocking monoclonal anti-human CD47 antibody, clone B6H12.2, ATCC (antibody, V domains shown)
VH: EVQLVESGGDLVKPGGSLKLSCAASGFTFSGYGMSWVRQTPDKRLEWVATITSGGTYTYYPDSVKGRFTISRDNAKNTLYLQIDSLKSEDTAIYFCARSLAGNAMDYWGQGTSVTVSS
VL: DIVMTQSPATLSVTPGDRVSLSCRASQTISDYLHWYQQKSHESPRLLIKFASQSISGIPSRFSGSGSGSDFTLSINSVEPEDVGVYYCQNGHGFPRTFGGGTKLEIK
phagocytosis of primary human cancer cells, agent alone [2]: robustly phagocytosed; also recorded: are phagocytosed; also recorded: enabled phagocytosis of cancer cells
phagocytosis of NBM cells (NBM cells): did not; also recorded: No difference in phagocytosis
phagocytosis of normal human cells [3]: not phagocytosed; also recorded: No difference in phagocytosis

B2: exogenous CRT: recombinant CRT human protein (Thermo Scientific), adsorbs onto the cellular surface and directly binds LRP (protein, UniProt P27797 18-417, looked up)
Calreticulin: EPAVYFKEQFLDGDGWTSRWIESKHKSDFGKFVLSSGKFYGDEEKDKGLQTSQDARFYALSASFEPFSNKGQTLVVQFTVKHEQNIDCGGGYVKLFPNSLDQTDMHGDSEYNIMFGPDICGPGTKKVHVIFNYKGKNVLINKDIRCKDDEFTHLYTLIVRPDNTYEVKIDNSQVESGSLEDDWDFLPPKKIKDPDASKPEDWDERAKIDDPTDSKPEDWDKPEHIPDPDAKKPEDWDEEMDGEWEPPVIQNPEYKGEWKPRQIDNPDYKGTWIHPEIDNPEYSPDPSIYAYDNFGVLGLDLWQVKSGTIFDNFLITNDEAYAEEFGNETWGVTKAAEKQMKDKQDEEQRLKEEEEDKKRKEEEEAEDKEDDEDKDEDEEDEEDKEEDEEEDVPGQAKDEL
phagocytosis of NBM cells (NBM cells): enabled phagocytosis of NBM cells; also recorded: enabled increased phagocytosis
phagocytosis of NBM cells (NBM cells; listed as Exogenous CRT): enabled increased phagocytosis of NBM cells
